B1: HENV-184 (antibody, V domains shown)
VH: QVQLVQSGTEVKNPGSSVKVSCKASGGTFSGFGISWVRQAPGQGLEWMGGVLPIFGSPNYAQKFQGRVTITADESTGTAYMDLSSLRSDDTAMYYCARDQSGGFFDYWGQGTLVIVSS
VL: EIVLTQSPATLSLSPGERATLSCRASQSVSSNLAWYQQKPGQAPRLLIYDASDRATGVPARFSGSGSGTDFTLTISSLEPEDFALYYCQQRYNWRVTFGQGTRLEIK
B2: HENV-83 (antibody, V domains shown)
VH: QVQLVESGGGVVQPGGSLRLSCAASGFTFRSYSMNWVRQAPGKGPEWMAVISYDGSNKYYTDSVKGRFTISRDNSKNTLNLQMNSLTSEDTAIYYCARFRGGGRIAARPDDYGMDVWGQGTTVTVST
VL: DIQMTQSPSSLSASVGDRVTITCRASESVITYLNWYQQKPGKAPKLLIYGASTLESGVPSRFSGSGSGTVFTLTISSLQPEDIATYYCQQSYNMSPYTFGQGTKLEIK
B3: HENV-226 (antibody, V domains shown)
VH: EERLVQSGGGLAQPGQSLRLSCAGFGFTFTRYEMNWVRQAPGKGLEWIAHISTRGDTISYADSVKGRATISRDDTNNSLDLQMDSLRAEDTAIYFCARDRGSLSTRPPDSYHYYYHGMDVWGQGTTVIVSS
VL: EIVLTQSPATLSLSPGERATLSCRASQSIDTYLAWYQQKPGQAPRLLIYDASNRATGIPARFSGSGSGTDFSLTISSLEPDDFAVYYCQQRSNRPPRYTFGLGTRLEIK
B4: HENV-150 (antibody, V domains shown)
VH: EVQLLESGGGLVQPGGSLRLSCAASGFTFSSSAMSWVRQTPGKGLEWVSTISGSGANTYYAASVKGRFPISRDNSKNTLFLQMNSLRAEDTAVYYCAKVSTVTFGGHVPRGSYFDYWGQGTQVTVSS
VL: SYVLTQPPSVSVAPGQTARIPCGGNNIGSKSVHWYQQKPGQAPVLVVYDENDRPSGIPERFSASKSGNTATLTISRVEAGDEADYYCQVWDSRSDHYVFGTGTKVTVL
B5: HENV-103 (antibody, V domains shown)
VH: QVQLQGSGPGLVKPSQTLSLTCSVSGGSVSRSGYYWGWIRQHPGKGLECIGYIYYSGITYYNPSLSGRLTISVDTSKNQFSLELSSVTAADTAVYYCARVWLGGGVFDFWGQGSLVTVSS
VL: EIVMTQSPATLSVSPGEGATLSCRASQSVSSNLAWYQQKPGQAPRLLIYDASTRATGIPARFSGSGSGTEFTLTISSLQSEDFAVYYCQQYNDWRTFGRGTKVEMR
B6: HENV-100 (antibody, V domains shown)
VH: QVQLVQSGAEVKKPGASVKVSCKASGYTFTSYYINWVRQAPGQGLEWVGTINPSGGSTTYAQKFQGRVTVTRDTSTSTVYMDLSGLRSGDTAVYYCARDRKGLAATPVYSDYYYGMDVWGQGTTVTVSS
VL: EIVLTQSPATLSLSPGERATLSCRASQSVSSFLAWYQQKPGQAPRLLISDASKRATGIPARFSGSGSGTDFSLTISSLEAEDFAVYYCQQSTNWRITFGQGTRLELK
B7: HENV-142 (antibody, V domains shown)
VH: QVRLQESGPRLVKPSQTLSLTCTVSGGSISSRDYYWSWIRQHPGKGLEWIGYIYYSGTTYYNPSLESRVTLSLDTSKNQFSLDLTSVTAADTAVYHCARVWLGGGVFDFWGQGTLVTVSA
VL: EIVMTQSPDTLSVSPGERATLSCRASHSVTTNLAWYQQRPGQAPRLLIFDASTRATGIPARFSGSGSGTEFTLTIGSLQSEDFAVYYCQQYNDGRTFGQGTKVEIK
B8: HENV-98 (antibody, V domains shown)
VH: AVQLVESGGGLVQPGGSLRLSCEASGFTFSGYWMSWVRQAPGKGLEWVANIKGDGSEKYYVDSVKGRFTIFRDNAKTSLYLQVNSLRAEDTAVYYCARERHFLAARPGYYIYSGLDVWGPGTTVTVSS
VL: DIQMTQSPSSLSASVGDRVTITCRASQSIDNYLNWYQQKPGKVPKLLIYAASNLQSGVPSKFSGGGSGTDFTLTISSLQPDDFATYYCQQSFGTPRTFGQGTRVEIK
B9: HENV-99 (antibody, V domains shown)
VH: QVLLVQSGAEVRKPGASVKVSCRASGYTFTDYYMHWVRQAPGQGLEWMGWINPNSGATKYAQKFQGRVTLTRDTSINTAYMELSGLRSVDTAVFYCASVPPSGFFYWGSDYWGQGTLVTVSS
VL: DVVLTQSPLSLPVTLGQPASISCRSSQSLVYSDGTTYLNWFQQRPGQSPRRLIYKVSYRDSGVPDRFSGSGSGTDFTLEISRVEAEDVGIYYCMHGTHWETWTFGQGTKVEIK
B10: HENV-122 (antibody, V domains shown)
VH: EVQLLESGGGLVQPGGSLRLSCAASGFTFSTNAMSWVRQAPGKGLEWVSTVSGSGAHPNYGDSVKGRFTISRVNSKNTLFLQMSSLRAEDTAIYYCARVSTVTVGGHIPRGYYFDYWGQGTLVTVSS
VL: EILLTQSPGTLSLSPGERATLSCRASQSASSSYLAWYQQKPGQAPRLLIYGASTRATGIPDRFSGSGSGTEFTLTISRLESEDFAVYYCHHYGSSRTFGQGTKVEVK
B11: HENV-58 (antibody, V domains shown)
VH: QVQLVQSGAEVKKPGSSVKVSCKASGGTFSNYVISWVRQAPGQGFEWMGRIIPMIGISNYAQKFQDRVTITADKDESTTTAYMELRGLRSEDTAMYYCASSTVTEVGAWGQGTLVTVSS
VL: AIQLTQSPSSLSASIGDRVTITCRASQGISSALAWFQQKPGKPPILLIYDASSLESGVPARFSGSGSGTDFTLTISSLQPEDFATYYCQQFYNHPLTFGPGTKVDIK
B12: HENV-141 (antibody, V domains shown)
VH: QVQLVQSGAEVKKPGSSVKVSCKASGGTFSSYTISWVRQAPGQGLEWMGRIIPISGITNYAQKFQGRVTITADKSTSTAYMELSSLRSEDTAVYYCAKDCYYGSGTYYGCRADYQWHHTMDVWGQGTTVTVSS
VL: DIQMTQSPSSLSASVGDRVTITCRASQGIRNDLGWFQQKPGKAPKRLIYAASSLQSGVPSRFSGSGSGTEFTLTISSLQPEDFATYFCLQHNTYPLTFGQGTKVEIK
B13: HENV-188 (antibody, V domains shown)
VH: QVQVVESGGGVVHPGRSLRLSCAGSGFIFNNYAFHWVRQAPGGGLEWMAYISYDGRYKYYAASVRGRFTISRDDSKNTLYLQMSSLRTEDTALYYCAISDYAEPLDNWGQGTLVTVSS
VL: QIVLTQSPATLSLSPGDRATLSCRASQSVSSNVAWYQQKPGQAPRLLIYNVSNRATGIPARFSGSGSGTDFTLTISSLEPEDFAVYYCHQRTNWPLTFGGGTKVEIK
B14: HENV-117 (antibody, V domains shown)
VH: QVQLQQWGAGLLKPSETLSLTCDLSGGSFTNYYWTWIRHLPGKGLEWLGEINHSGRTNYSPSLKSRVTISVDTSKNQFSLRLSSVTAADTAVYYCARDIRKLAPKPHSYDLYYGMDVWGQGTTVTVSS
VL: EIVLTQSPGTLSLSPGERATLSCRASQSVGSNYLTWYQQKPGQPPRLLIYGASNRAAGIPDRFSGSGSGTDFTLTISRLEPEDFAVYYCQQYETSSRTFGQGTKVDIR
B15: HENV-137 (antibody, V domains shown)
VH: EVQLVESGGGLVQPRGSLRLSCAASGFTFSGYWMSWVRQAPGKGLEWVAKIKKDGSEKTYVDSVKGRFTISRDNAKDSLYLQMNSLRAEDTAVYYCARERLLVPAAIVGLDYYYAMDVWGQGTTVTVSS
VL: DIQMTQSPSSLSASVGDRVTITCRASQNMSTYLNWYQQKPGKAPKFLIYGASRLQNGVPSRFSGGGSGTDFTLTISSLQPEDFATYYCQQSYNIPITFGQGTRLEIK
B16: HENV-242 (antibody, V domains shown)
VH: QVQLVQSGAEVKKPGSSVTVSCKTSGGTFSGYAVSWVRQAPGQGLEWMGRIVPQFNIPNYAQKFQDRVTITADESTGTSYMELSSLRSDDTAVFYCARENIQTIFGVVAMMGGGGYFDSWGQGTLVTVSS
VL: DIQMTQSPSSLSASVGDRVTITCQANQDINTYLNWYLQKPGKAPQLLVFDASNLVTGVPSRFSGGGSRTDFTLTIDSLQPEDIGTYYCQQYDHLPRRTFTFGPGTKVDLK

This assay deals with NiVB-G (Nipah virus, strain Bangladesh).
The molecule B1 came in with a 50% effective concentration (EC50) of 2.32 nM.
Regarding B2, the EC50 came to 2.79 nM.
Take B3: the half-maximal effective concentration (EC50) was 0.361 nM.
B4 registered an EC50 of 0.332 nM. This EC50 and that of the molecule before are within 1.5-fold of each other.
B5 displayed a half-maximal effective concentration (EC50) of 1.34 nM.
In the case of B6 it was 0.514 nM; in that of B7, 13 nM; in that of B8, 0.58 nM.
B9 returned an EC50 of 1.16 nM.
The result for B10 reads 0.382 nM; that for B11, 1.44 nM.
In turn, B12 yielded an EC50 of 0.778 nM. Against the preceding molecule, the EC50 is about 1.9-fold lower.
The result for B13 reads 1.26 nM; that for B14, 1.2 nM; that for B15, 0.84 nM.
Molecule B16 had an EC50 of 7.67 nM.

Values taken from patent US12559545.
